Experimental data: US7128911

Target: T1, C-RANKL protein (RANKL fragment with N-terminal cysteine-containing amino acid linker and hexa-histidine tag, … (mouse, UniProt O35235 137-316))
T1 construct: Coated on ELISA plates at 10 ug/ml
T1 sequence: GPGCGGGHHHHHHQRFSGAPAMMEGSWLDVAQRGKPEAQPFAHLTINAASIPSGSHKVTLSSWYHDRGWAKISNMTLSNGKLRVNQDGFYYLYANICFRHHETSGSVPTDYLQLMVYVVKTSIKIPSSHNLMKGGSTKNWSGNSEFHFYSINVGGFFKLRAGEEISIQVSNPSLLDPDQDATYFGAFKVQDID
Test: ELISA, plates coated with 10 ug/ml C-RANKL, serial dilutions of RANK-Fc, anti-Fc-HRP detection

B1: purified RANK-Fc fusion protein (Fc fusion)
chain: VTPPCTQERHYEHLGRCCSRCEPGKYLSSKCTPTSDSVCLPCGPDEYLDTWNEEDKCLLHKVCDAGKALVAVDPGNHTAPRRCACTAGYHWNSDCECCRRNTECAPGFGAQHPLQLNKDTVCTPCLLGFFSDVFSSTDKCKPWTNCTLLGKLEAHQGTTESDVVCSSSMTLRRPPKEAQAYLPS
Work on B1 yielded an EC50 of 1 to 3 nM.
